{"source": "patent US20030036108A1", "key": {"[1]": {"target": "CXCR4 naturally expressed on Jurkat T cells (human) (UniProt P61073)", "sequence (P61073 whole entry)": "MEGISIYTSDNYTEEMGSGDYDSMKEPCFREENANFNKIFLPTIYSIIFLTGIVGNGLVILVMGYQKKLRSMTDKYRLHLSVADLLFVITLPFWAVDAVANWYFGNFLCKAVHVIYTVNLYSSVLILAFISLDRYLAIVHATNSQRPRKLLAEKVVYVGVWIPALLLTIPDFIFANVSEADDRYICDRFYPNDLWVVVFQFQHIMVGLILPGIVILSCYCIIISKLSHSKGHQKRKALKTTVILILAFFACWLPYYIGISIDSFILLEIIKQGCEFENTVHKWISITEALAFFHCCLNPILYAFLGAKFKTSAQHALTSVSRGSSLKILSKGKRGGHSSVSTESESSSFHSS", "experiment": "cell-based or functional assay"}, "[2]": {"target": "CD4 naturally expressed on Jurkat T cells (human) (UniProt P01730)", "experiment": "cell-based or functional assay"}}, "data": [{"substance": "gp143/HXB2, a carboxyl-terminus truncated form of the Env (gp160) of HIV-1 strain HXB2, expressed on CHO or 293T cells (from UniProt P04578 31-714)", "values": [{"measurement": "fusion ratio (460 nm / 530 nm emission) of 293T cells expressing gp143/HXB2 with Jurkat cells", "setting": "[1]", "result": 1.54}, {"measurement": "fusion ratio (460 nm / 530 nm emission) of 293T cells expressing gp143/HXB2 with Jurkat cells", "setting": "[2]", "result": 1.54}]}]}
